Laboratory results as given in the supplement of paper PMC9233669.
This sample holds only a part of the variants without activity.

Columns and labels:
[1] = test system: biotinyl-Met-oxazolone; assay: self-aminoacylation, catalytic enhancement (BMO) (fold over background); higher = more active; k-Seq, kA / k0A0; sequences stand for … in GGGAAUGGAUCCACAUCUACGAAUUC…UUCACUGCAGACUUGACGAAGCUG
Procedure, shortened: (§1)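 Mutagenized RNA pools with a 21-nt variable region (0.43 μM) were reacted with each biotinyl-aminoacyl-oxazolone at 2–1250 μM for 90 minutes at room temperature, in 50 μL HEPES/NaCl/KCl/MgCl2/CaCl2 buffer containing 5% acetonitrile at pH 6.9–7.0. RNA captured on streptavidin was quantified by triplicate qPCR and by Illumina sequencing. The fraction reacted for each sequence was fit to a pseudo-first-order model with bootstrapping, and catalytic enhancement is the median kA divided by the uncatalyzed rate, taken as the low-activity peak of a bimodal Gaussian fit.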

[2] = test system: biotinyl-Trp-oxazolone; assay: self-aminoacylation, catalytic enhancement (BWO) (fold over background); higher = more active; k-Seq, kA / k0A0; sequences stand for … in GGGAAUGGAUCCACAUCUACGAAUUC…UUCACUGCAGACUUGACGAAGCUG
Procedure, shortened: as §1

[3] = test system: biotinyl-Phe-oxazolone; assay: self-aminoacylation, catalytic enhancement (BFO) (fold over background); higher = more active; k-Seq, kA / k0A0; sequences stand for … in GGGAAUGGAUCCACAUCUACGAAUUC…UUCACUGCAGACUUGACGAAGCUG
Procedure, shortened: as §1

[4] = test system: biotinyl-Val-oxazolone; assay: self-aminoacylation, catalytic enhancement (BVO) (fold over background); higher = more active; k-Seq, kA / k0A0; sequences stand for … in GGGAAUGGAUCCACAUCUACGAAUUC…UUCACUGCAGACUUGACGAAGCUG
Procedure, shortened: as §1

[5] = test system: biotinyl-Leu-oxazolone; assay: self-aminoacylation, catalytic enhancement (BLO) (fold over background); higher = more active; k-Seq, kA / k0A0; sequences stand for … in GGGAAUGGAUCCACAUCUACGAAUUC…UUCACUGCAGACUUGACGAAGCUG
Procedure, shortened: as §1

[6] = test system: biotinyl-Ile-oxazolone; assay: self-aminoacylation, catalytic enhancement (BIO) (fold over background); higher = more active; k-Seq, kA / k0A0; sequences stand for … in GGGAAUGGAUCCACAUCUACGAAUUC…UUCACUGCAGACUUGACGAAGCUG
Procedure, shortened: as §1

Sequence | self-aminoacylation [1] | self-aminoacylation [2] | self-aminoacylation [3] | self-aminoacylation [4] | self-aminoacylation [5] | self-aminoacylation [6]
AUUACCUUGGUCAUUGAGUGA [Fam2.1 aminoacylation ribozyme variant] | 8.51 | 10.2 | 32.4 | 4.11 | 7.89 | 4.08
AUAACCCUGGUAAUCGAGUGA [Fam2.1 aminoacylation ribozyme variant] | 7.93 | 9.38 | 42.6 | 3.58 | 8.57 | 3.97
CUUUUUCAAACAAUCGGUCUG [Fam1A.1 aminoacylation ribozyme variant] | 0.67 | 3.86 | 6.81 | 0.815 | 0.89 | 0.86
CCACACUUCAAGCGAUCGCUC [Fam1B.1 aminoacylation ribozyme variant] | 1.85 | 2.83 | 4.68 | 2.03 | 2.28 | 2.62
AUUAACCCAGGUCAUCGGGUG [Fam2.2 aminoacylation ribozyme variant] | 6.61 | 5.58 | 36.2 | 3.58 | 8.17 | 4.38
AUAACCCUUGUCAUCGAGUGA [Fam2.1 aminoacylation ribozyme variant] | 6.3 | 7.89 | 21.5 | 3.13 | 6.26 | 3.29
AUUCACCUAAGCCAUCGGGUG [Fam2.2 aminoacylation ribozyme variant] | 3 | 3.01 | 26.6 | 3.24 | 4.62 | 2.55
AGAUUUGCUAAUAGUCGCAAG [Fam3.1 aminoacylation ribozyme variant] | 1.58 | 1.88 | 2.47 | 1.8 | 2.39 | 1.91
AUUCGCCUAGGUCAUCGGGUA [Fam2.2 aminoacylation ribozyme variant] | 46.9 | 35.3 | 391 | 23.4 | 68.8 | 25.1
AAGUUUGCUAAUAAUUGCAAG [Fam3.1 aminoacylation ribozyme variant] | 0.862 | 0.832 | 1.1 | 0.857 | 0.877 | 0.961
CUACUACAAACGAUCGGUCUG [Fam1A.1 aminoacylation ribozyme variant] | 0.915 | 0.607 | 0.437 | 0.797 | 0.656 | 0.821
AAGGUUGCUAAUAAUCGCAAG [Fam3.1 aminoacylation ribozyme variant] | 1.11 | 1.59 | 1.47 | 1.02 | 1.19 | 1.41
AUUACCCUGGUCAAAGAGUGA [Fam2.1 aminoacylation ribozyme variant] | 8.35 | 10.5 | 45.6 | 4.26 | 8.08 | 4
AUUAACCUGGUCAGCGAGUGA [Fam2.1 aminoacylation ribozyme variant] | 4.41 | 4.66 | 19.5 | 2.81 | 4.19 | 2.57
CAACACUUCAAGCAAUCUGUC [Fam1B.1 aminoacylation ribozyme variant] | 0.396 | 0.398 | 0.588 | 0.502 | 0.362 | 0.399
GAGUUUGCUAUUAGUCGCAAG [Fam3.1 aminoacylation ribozyme variant] | 1.17 | 1.72 | 2.47 | 1.01 | 1.28 | 1.18
AUUCACCUAUGCCAUCGGGUG [Fam2.2 aminoacylation ribozyme variant] | 2.85 | 3.42 | 18.9 | 1.98 | 3.21 | 1.5
AUAACCCUGGUCAUCGAUUGA [Fam2.1 aminoacylation ribozyme variant] | 0.883 | 0.392 | 0.646 | 0.974 | 1.02 | 0.94
CAACACUUCAAGCAAACGGUC [Fam1B.1 aminoacylation ribozyme variant] | 0.678 | 0.739 | 0.797 | 0.815 | 0.68 | 0.92
CUGACCCUGGUCAUCGAGUGA [Fam2.1 aminoacylation ribozyme variant] | 7.22 | 8.61 | 7.35 | 4.5 | 7.94 | 3.64
AUUACCCAGGUCAUCGAGUGG [Fam2.1 aminoacylation ribozyme variant] | 1.07 | 0.735 | 0.937 | 1.22 | 1.3 | 1.14
AUUCACCUCGGUCAUCCGGUG [Fam2.2 aminoacylation ribozyme variant] | 12.2 | 11.1 | 78.8 | 7.28 | 14 | 6.84
AAGGUUGCAAAUAGUCGCAAG [Fam3.1 aminoacylation ribozyme variant] | 1.02 | 1.66 | 1.44 | 1.08 | 1.2 | 1.41
AUUACCCUGGUCAUCAAAUGA [Fam2.1 aminoacylation ribozyme variant] | 1.14 | 0.735 | 1.1 | 0.806 | 0.969 | 1.1
AAGUUUGAUAAUAGUCUCAAG [Fam3.1 aminoacylation ribozyme variant] | 0.731 | 0.754 | 1.46 | 0.703 | 0.638 | 0.737
